Experimental data reported in paper PMC3684959 (2013).

Target: Arp2/3 complex (Bos taurus, UniProt A7MB62, CK-666)
Experiment: fluorescence anisotropy

Kd: 1.2 µM
B1: cortactin NTA N-terminal acidic region (protein)
chain: MWKASAGHAVSIAQDDAGADDWETDPDFVNDVSEKEQRWGAKTVQGSGHQEHINIHKLRENVFQEHQTLKEKELETGPKASHGY
